The values that follow come from the nanobody polyreactivity screen of Harvey et al. (2022).

This data set is described as follows: yeast display, Sf9 membrane polyspecificity reagent, FACS + sequencing; frameworks hold sequencing errors. Put shortly: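 After 36–48 hours of galactose induction, yeast (Saccharomyces cerevisiae BJ5465) displaying a synthetic nanobody library were stained at 4 °C for 1 hour with 10% biotinylated, detergent-solubilized Sf9 membrane reagent. Streptavidin microbeads enriched the stained cells before FACS sorting into low and high (top ~1%) gates on anti-HA and streptavidin fluorescence. Each clone's polyreactivity label reflects its gate of origin.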
Consider “QVQLVESGGGLVQAGGSLRLSCAASGRIISHNAMGWYRQAPGKERELVAVISNGGSTYYADSVKGRFTISRDNAKNTVYLQMNSLKPEDTAVYYCAARYTPQSGFYYRGQGTQVTVSS”, for which the “polyreactivity (PSR sort gate)” value is on record as “low polyreactivity”. Turning to “QVQLVESGGGLVQAGGSLRLSCAASGRIISRNAMGWYRQAPGKERELVAAISGSGSRTFYADSVKGRFTISRDNAKNTVYLQMNSLKPEDTAVYYCAADRSSYSRFYYWGQGTQVTVSS”, the “polyreactivity (PSR sort gate)” value is “high polyreactivity”. The entry for “QVQLVESGGGLVQAGGSLRLSCAASGRIIYGYTMGWYRQAPGKERELVAVISRGGSTNYADSVKGRFSISRDNAKYTVYLQMNSLKPEDTAVYYCAATTKLPRGNYWYYYWGQGTQVTVSS” is “high polyreactivity”; for “QVQLVESGGGLVQAGGSLRLSCAASGRIIYINAMGWYRQAPGKERELVAAISSDGNTNYADSVKGRFTISRDNAKNTVYLQMNSLKPEDTAVYYCNADVWFYYTFDYWGLGTQVTVSS” it is “low polyreactivity”. Turning to “QVQLVESGGGLVQAGGSLRLSCAASGRIIYRYAMGWYRQAPGKERELVAAIRYSGGRTYYADSVKGRFTISRDNAKNTVYLQMNSLKPEDTAVYYCAADGQWYYARFRGGDYENDYWGQGTQVTVSS”, the “polyreactivity (PSR sort gate)” value was “low polyreactivity”.

In the case of “QVQLVESGGGLVQAGGSLRLSCAASGRIKYNVMGWYRQAPGKEMELVAAITRSAGRTYYADSVKGRFSISRDNAKNTVYLQMNSLKPEHTGGYYCAAQAERYGYVYWGQGTQVTVSS”, the “polyreactivity (PSR sort gate)” value was “low polyreactivity”.

On to “QVQLVESGGGLVQAGGSLRLSCAASGRILAANAMRWYRQAPGKERELVAAISWSGGRTYYADSVKGRFTISRDNAKNTVYLQMNSLKPEDTAVYYCASVRRYKMDYWGQGTQVTVSS”, for which the “polyreactivity (PSR sort gate)” value is recorded as “high polyreactivity”.

Take “QVQLVESGGGLVQAGGSLRLSCAASGRILARYTMGWYRQAPGKERELVAAISRSSGSTYYADSVKGRFTISRDTAKNTVYLQMNSLKPEDTAVYYCAAYLSYWGQGTQVTVSS”: the “polyreactivity (PSR sort gate)” value was “high polyreactivity”. The value for “QVQLVESGGGLVQAGGSLRLSCAASGRILDYNAMGWYRQAPGKERELVAAITWRGGSTYYADSVKGRFTISRDNAKNTVYLQMNSLKPEDTAVYYCNARWSKTAHTRFGYWGQGTQVTVSS” was “low polyreactivity”. In the case of “QVQLVESGGGLVQAGGSLRLSCAASGRILFGYAMGWYRQAPGKERELVADITSTGSTNYADSVKGRFTISRDNAKNSVYLQMNSLKPEDTAVYYCNARRESYYQRYRVDYWGQGTQVTVSS”, the “polyreactivity (PSR sort gate)” value is “low polyreactivity”. With “QVQLVESGGGLVQAGGSLRLSCAASGRILGAYAMGWYRQAPGKERELVASISSGGRTYYADSVKGRFTISRDNAKNTVYLQMNSLKPEDTAVYYCNRDRNSGFYRRYGYWGQGTQVTVSS”, the “polyreactivity (PSR sort gate)” value was “high polyreactivity”. In the case of “QVQLVESGGGLVQAGGSLRLSCAASGRILGDYAMGWYRQAPGTEREFVAAIDYNGGSTNYADSVMGRFTISRDNAKNTVYFQMNSLKPEDTAVYYCAKTDGFYRGYGYWGQGTQVTVSS”, the “polyreactivity (PSR sort gate)” value is “low polyreactivity”. In the case of “QVQLVESGGGLVQAGGSLRLSCAASGRILGKYAMGWYRQAPGKERELVAAIRLRGGSTYYADSVKGRFTISRDNAKNTVYLQMNSLKPEDTAVYYCAARYWDRSQAYTYWGQGTQVTVSS”, the “polyreactivity (PSR sort gate)” value was “high polyreactivity”.

For the sequence “QVQLVESGGGLVQAGGSLRLSCAASGRILGNNVMGWYRQAPGKERELVDAITSSGGRTYYADSVKGRFTISRDNAKNTVYLQMNSLKPEDTAVYYCAAERRYYGKFNYWGQGTQVTVSS”, the “polyreactivity (PSR sort gate)” value is recorded as “high polyreactivity”.

Take “QVQLVESGGGLVQAGGSLRLSCAASGRILGQYAMGWYRQAPGKERELVAAISFRGGRTYYADSVKGRFTISRDNAKNTVYLQMNSLKPEDTAVYYCATDGWRSPYYRNYRYFYTEYYYWGQGTQVTVSS”: the “polyreactivity (PSR sort gate)” value was “high polyreactivity”.

“QVQLVESGGGLVQAGGSLRLSCAASGRILGQYVMGWYRQAPGKERELVASIRSGGVSTYYADSVKGRFTISRDNAKNTVYLQMNSLKPEDTAVYYCATGSPGPRRYKFDYWGQGTQVTVSS”: the “polyreactivity (PSR sort gate)” value is “low polyreactivity”.
